For assay [1], the target named is T1, collagen triple helix repeat containing-1 (CTHRC1) protein (Homo sapiens (Human), UniProt Q96CG8 31-243).
T1 construct: The coated protein may in fact have been CTHRC1-His or CTHRC1-Fc
Briefly: indirect ELISA, CTHRC1 coated at 5 µg/mL, anti-human Fc-HRP. On the procedure:
The affinity of cCMAb45 and cCMAb96, which are anti-CTHRC1 chimeric antibodies, prepared in Example 1-3 to the CTHRC1 protein was verified. Indirect ELISA was performed to test the affinity of the antigens and antibodies.
100 μL of CTHRC1 was dispensed at a concentration of 5 μg/mL onto an immuno-plate and coated at 4° C. overnight. The next day, the coated CTHRC1 solution was discarded and blocked for 2 hours. Thereafter, the cCMAb45 and cCMAb96 antibodies were treated at different concentrations and reacted at room temperature for 2 hours, and the antibodies were discarded to remove the unbound antibodies, and then the plate was washed. The OD value was measured using the anti-human Fc-HRP as a second antibody that recognizes human constant regions. In particular, the higher OD value indicates higher affinity between CTHRC1 and the antibodies.
A general note: An ELISA detects its analyte on a solid surface through an enzyme-linked reagent.

Assay [2] has as its target T2, CTHRC1-His (Homo sapiens (Human), UniProt Q96CG8 30-243).
T2 construct: also called antigen CTHRC1-His
Briefly: indirect ELISA, CTHRC1-His coated, re-measurement.

Consider four molecules from US20220204599A1 (PRESTIGE BIOPHARMA, published 2022).

Where a chain is given by its changes, count along the chain named.

What is called Kd is the equilibrium constant for the complex coming apart. Higher therefore signals lower affinity.

T2 sequence (Q96CG8 other isoform, or with tags, fused parts or gaps limits assumed): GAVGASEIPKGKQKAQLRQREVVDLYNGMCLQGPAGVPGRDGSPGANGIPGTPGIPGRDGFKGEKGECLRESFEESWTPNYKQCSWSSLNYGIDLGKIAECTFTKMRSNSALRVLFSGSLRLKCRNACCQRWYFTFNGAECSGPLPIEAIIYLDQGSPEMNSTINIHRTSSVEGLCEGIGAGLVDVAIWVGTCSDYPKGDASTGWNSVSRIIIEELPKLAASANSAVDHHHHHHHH
T1 sequence (Q96CG8 31-243 limits assumed): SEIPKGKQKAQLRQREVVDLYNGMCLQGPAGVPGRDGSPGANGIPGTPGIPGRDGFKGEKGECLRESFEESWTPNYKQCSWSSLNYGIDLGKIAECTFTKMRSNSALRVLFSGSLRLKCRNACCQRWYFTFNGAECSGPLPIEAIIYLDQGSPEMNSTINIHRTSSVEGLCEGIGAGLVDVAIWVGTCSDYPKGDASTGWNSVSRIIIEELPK

B1: cCMAb45 anti-CTHRC1 chimeric antibody (antibody, V domains shown)
VH: EVQLQQSGPELVKPGASVKISCKASGYSFTDYIMLWVKQSHGKSLEWIGNINPYYGSTSYNLKFKGKATLTVDKSSSTAYMQLNSLTSEDSAVYYCARSGYGYDESAMDYWGQGTSVTVSS
VL: DVLMTQTPLSLPVNIGDQASISCKSTKSLLNSDGFTYLDWYLQKPGQSPQLLIYLVSNRFSGVPDRFSGSGSGTDFTLKISRVEAEDLGVYYCFQSNYLPLTFGSGTKLEIK
notes: Detected with anti-human kappa light chain-HRP, so the light chain is kappa; also called chimeric 4H5
With B1, the Kd in assay [1] turned out to be 520 pM.

B2: hCMAb45 humanized anti-CTHRC1 antibody (antibody, V domains shown)
VH: QVQLVESGAEVKKPGASVKVSCKASGYSFTDYIILWVRQAPGQGLEWMGAINPYYGSTVYGQKFQGRLTITADGSMSTAYMELSSLRSEDTAVYYCARSGYGYDESAMDYWGQGTLVTVSS
VL: B1 VL with V2I, L3V, N14T, I15P, D17E, Q18P, K24R, T26S, L88V, S105Q
notes: Humanized IgG made by CDR grafting and expressed in HEK293F; also called SA2765; humanized 4H5
In the case of B2, the binding result in assay [2] was “binds”.

B3: cCMAb96 anti-CTHRC1 chimeric antibody (antibody, V domains shown)
VH: QVQLQQPGSELVRPGASVKLSCKASGYTFTSYWMHWVKQRPGQGLEWIGNIYPSSGTTNYDEKFKNKATLTVDTSSTTAYMHLSSLTSEDSAVYYCTTESYWGQGTTLTVSS
VL: DIVMTQSPSSLSASLGDTITITCHASQNINVWLSWYQQKPGNIPKLLIYKASNLHTGVPSRFSGSGSGTGFTLTISSLQPEDIATYYCQQGQSYPLTFGGGTKLEIK
notes: Detected with anti-human kappa light chain-HRP, so the light chain is kappa; also called chimeric 9E6
Turning to B3, the Kd in assay [1] stood at 430 pM.

B4: hCMAb96 humanized anti-CTHRC1 antibody (antibody, V domains shown)
VH: QVQLVQSGAEVKKPGASVKVSCKASGYTFTSYWMHWVRQAPGQGLEWIGYIYPSSGTTNYNQKFQGRVTITADESTSTAYMELSPLRSEDTAVYYCTTESYWGQGTTVTVSS
VL: B3 VL with V3Q, S34A, N42K, I43A, T56S, G70D, G100Q, L104V
notes: Humanized IgG made by CDR grafting and expressed in HEK293F; also called SA2770; humanized 9E6
With B4, in assay [2], the binding result is “binds”.
